Test results reported in the supplement of paper PMC10567573.

B1: NP_006221.1 (parent)
chain: CQPISFSGFGAEDDDLGGLGLGP

Variants of: B1
Experiment: protein stability index of a GFP-peptide fusion (GPS, HEK-293T) (PSI 1-6); higher = more stable
Details: c terminus: native
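Further: lentivirally expressed fusion library, cells FACS-sorted into six equal-sized GFP/DsRed ratio bins, PSI computed from sequencing read fractions per bin weighted by bin number.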

Point of comparison: CQPIQFSGFGAEDDDLGGLGLGP [S5Q], protein stability index 2.24. Against it:
- CQPISFSGFGAEDDDLGGLGLPP [G22P] — higher, 4.39
- CQPISFSGFGAEDDDLGGLGLFP [G22F] — higher, 2.4
- CQPISFSGFGAEDDDLGGLGLKP [G22K] — higher, 4.15
- CQPISFSGFGAEDDDLRGLGLGP [G17R] — lower, 1.52
- CQPISFSGFGAEDDDLTGLGLGP [G17T] — lower, 2.1
- CQPISFSGFGAEDDDLQGLGLGP [G17Q] — lower, 2.12
- CQPISFSNFGAEDDDLGGLGLGP [G8N] — the same, 2.24
- CQPISFSRFGAEDDDLGGLGLGP [G8R] — higher, 2.52
- CQPISFSWFGAEDDDLGGLGLGP [G8W] — lower, 2.19
- CQPISFSGFGAEQDDLGGLGLGP [D13Q] — lower, 2.21
- CQPISFSGFGAESDDLGGLGLGP [D13S] — higher, 2.41
- CQPISFSGFGAECDDLGGLGLGP [D13C] — higher, 2.42
- CQPISFSGFGAEDDDLGGLGPGP [L21P] — higher, 5.09
- CQPISFSGFGAEDDDLGGLGGGP [L21G] — higher, 4.98
- CQPISFSGFGAEDDDLGGLGSGP [L21S] — higher, 5.12
- CQPISFSGFGAEDDDLGGLGDGP [L21D] — higher, 5.19
- CQPISFSGFGAEDDDLGGLGIGP [L21I] — higher, 3.46
- DQPISFSGFGAEDDDLGGLGLGP [C1D] — higher, 2.57
- SQPISFSGFGAEDDDLGGLGLGP [C1S] — lower, 2.17
- IQPISFSGFGAEDDDLGGLGLGP [C1I] — lower, 2.12
- RQPISFSGFGAEDDDLGGLGLGP [C1R] — higher, 2.31
- CQPISVSGFGAEDDDLGGLGLGP [F6V] — higher, 3.43
- CQPISYSGFGAEDDDLGGLGLGP [F6Y] — higher, 2.52
- CQPISCSGFGAEDDDLGGLGLGP [F6C] — higher, 3.41
- CQPISLSGFGAEDDDLGGLGLGP [F6L] — higher, 3.5
- CQPISSSGFGAEDDDLGGLGLGP [F6S] — higher, 3.93
- CQPISNSGFGAEDDDLGGLGLGP [F6N] — higher, 4.41
- CQPISFIGFGAEDDDLGGLGLGP [S7I] — lower, 2.13
- CQPISFPGFGAEDDDLGGLGLGP [S7P] — higher, 4.14
- CQPISFVGFGAEDDDLGGLGLGP [S7V] — lower, 2.07
- CQPISFMGFGAEDDDLGGLGLGP [S7M] — higher, 2.47
- CQPISFSGFGAEDDDLGGLRLGP [G20R] — higher, 3.93
- CQPISFSGFGAEDDDLGGLPLGP [G20P] — higher, 3.11
- CQPISFSGFGAEDDDLGGLSLGP [G20S] — higher, 2.69
- CQPISFSGFGAEDDDLGGLLLGP [G20L] — higher, 3.54
- CQPISFSGFSAEDDDLGGLGLGP [G10S] — lower, 1.95
- CQPISFSGFCAEDDDLGGLGLGP [G10C] — lower, 2.04
- CQPISFSGFQAEDDDLGGLGLGP [G10Q] — higher, 2.3
- CQPISFSGFGNEDDDLGGLGLGP [A11N] — lower, 2.09
- CQPISFSGFGVEDDDLGGLGLGP [A11V] — higher, 2.33
- CQPISFSGFGPEDDDLGGLGLGP [A11P] — lower, 2.17
- CQPISFSGFGYEDDDLGGLGLGP [A11Y] — lower, 2.06
- CRPISFSGFGAEDDDLGGLGLGP [Q2R] — lower, 2.17
- CDPISFSGFGAEDDDLGGLGLGP [Q2D] — higher, 2.51
- CTPISFSGFGAEDDDLGGLGLGP [Q2T] — lower, 2.16
- CPPISFSGFGAEDDDLGGLGLGP [Q2P] — lower, 2.19
- CQPISFSGGGAEDDDLGGLGLGP [F9G] — higher, 3.01
- CQPISFSGDGAEDDDLGGLGLGP [F9D] — higher, 3.32
- CQPISFSGQGAEDDDLGGLGLGP [F9Q] — higher, 2.54
- CQPISFSGLGAEDDDLGGLGLGP [F9L] — lower, 2.23
- CQPISFSGNGAEDDDLGGLGLGP [F9N] — higher, 2.87
- CQPISFSGWGAEDDDLGGLGLGP [F9W] — higher, 2.53
- CQFISFSGFGAEDDDLGGLGLGP [P3F] — lower, 1.94
- CQRISFSGFGAEDDDLGGLGLGP [P3R] — lower, 2.06
- CQKISFSGFGAEDDDLGGLGLGP [P3K] — lower, 2.05
- CQPMSFSGFGAEDDDLGGLGLGP [I4M] — lower, 2.21
- CQPFSFSGFGAEDDDLGGLGLGP [I4F] — lower, 2.12
- CQPRSFSGFGAEDDDLGGLGLGP [I4R] — lower, 2.08
- CQPVSFSGFGAEDDDLGGLGLGP [I4V] — higher, 2.54
- CQPDSFSGFGAEDDDLGGLGLGP [I4D] — higher, 2.48
- CQPKSFSGFGAEDDDLGGLGLGP [I4K] — lower, 2.05
- CQPASFSGFGAEDDDLGGLGLGP [I4A] — lower, 2.17
- CQPESFSGFGAEDDDLGGLGLGP [I4E] — higher, 2.41
- CQPISFSGFGATDDDLGGLGLGP [E12T] — lower, 2.06
- CQPISFSGFGAHDDDLGGLGLGP [E12H] — higher, 2.48
- CQPISFSGFGAADDDLGGLGLGP [E12A] — higher, 2.32
- CQPISFSGFGAWDDDLGGLGLGP [E12W] — higher, 2.29
- CQPISFSGFGARDDDLGGLGLGP [E12R] — higher, 2.31
- CQPISFSGFGACDDDLGGLGLGP [E12C] — higher, 2.43
- CQPISFSGFGASDDDLGGLGLGP [E12S] — higher, 2.44
- CQPISFSGFGAKDDDLGGLGLGP [E12K] — lower, 2.17
- CQPISFSGFGAEDLDLGGLGLGP [D14L] — higher, 2.44
- CQPISFSGFGAEDVDLGGLGLGP [D14V] — lower, 2.12
- CQPISFSGFGAEDGDLGGLGLGP [D14G] — lower, 2.13
- CQPISFSGFGAEDIDLGGLGLGP [D14I] — lower, 2.21
- CQPISFSGFGAEDDDLGGLGLGW [P23W] — higher, 2.73
- CQPISFSGFGAEDDDLGGLGLGI [P23I] — higher, 2.95
- CQPISFSGFGAEDDDLGGLGLGV [P23V] — higher, 3.45
- CQPIGFSGFGAEDDDLGGLGLGP [S5G] — higher, 2.36
- CQPIKFSGFGAEDDDLGGLGLGP [S5K] — higher, 2.39
- CQPISFSGFGAEDDDPGGLGLGP [L16P] — lower, 2.15
- CQPISFSGFGAEDDDYGGLGLGP [L16Y] — higher, 2.27
- CQPISFSGFGAEDDDFGGLGLGP [L16F] — lower, 2.23
- CQPISFSGFGAEDDDDGGLGLGP [L16D] — lower, 2.22
- CQPISFSGFGAEDDDEGGLGLGP [L16E] — lower, 1.85
- CQPISFSGFGAEDDDQGGLGLGP [L16Q] — higher, 2.27
- CQPISFSGFGAEDDDNGGLGLGP [L16N] — lower, 2.07
- CQPISFSGFGAEDDDLGPLGLGP [G18P] — lower, 1.99
- CQPISFSGFGAEDDDLGMLGLGP [G18M] — lower, 1.99
- CQPISFSGFGAEDDDLGGKGLGP [L19K] — lower, 1.99
- CQPISFSGFGAEDDDLGGHGLGP [L19H] — higher, 2.96
- CQPISFSGFGAEDDLLGGLGLGP [D15L] — higher, 2.41
- CQPISFSGFGAEDDVLGGLGLGP [D15V] — higher, 2.29
- CQPISFSGFGAEDDRLGGLGLGP [D15R] — lower, 2.13
- CQPISFSGFGAEDDILGGLGLGP [D15I] — higher, 2.4
- CQPISFSGFGAEDDMLGGLGLGP [D15M] — higher, 2.47
